Changes are numbered by the printed parent chain. Names may count otherwise.
B1: FIXa-Y155F/K247N/N249S/R318Y/R403E/E410N (protein)
chain 1: YNSGKLEEFVQGNLERECMEEKCSFEEAREVFENTERTTEFWKQYVDGDQCESNPCLNGGSCKDDINSYECWCPFGFEGKNCELDVTCNIKNGRCEQFCKNSADNKVVCSCTEGYRLAENQKSCEPAVPFPCGRVSVSQTSKLTR
chain 2: VVGGEDAKPGQFPWQVVLNGKVDAFCGGSIVNEKWIVTAAHCVETGVKITVVAGEHNIEETEHTEQNRSVIRIIPHHNYNAAINKYNHDIALLELDEPLVLNSYVTPICIADKEYTNIFLKFGSGYVSGWGRVFHKGYSALVLQYLRVPLVDRATCLRSTKFTIYNNMFCAGFHEGGRDSCQGDSGGPHVTEVEGTSFLTGIISWGEECAMKGKYGIYTKVSEYVNWIKNKTKLT
B2: FIXa Y155F/N260S/R318Y/R338E/R403E/E410N (protein)
chain 1: B1 chain 1
chain 2: B1 chain 2 with N67K, S69N, N80S, R158E
B3: FIXa-K247N/N249S/R318Y/R403E/E410N (protein)
chain 1: B1 chain 1
chain 2: B1 chain 2
B4: FIXa R318Y/R338E/T343R/R403E/E410N (protein)
chain 1: B1 chain 1
chain 2: B1 chain 2 with N67K, S69N, R158E, T163R
B5: FIXa D104N/K106S/K247N/N249S/N260S (protein)
chain 1: B1 chain 1 with D104N, K106S
chain 2: B1 chain 2 with N80S, Y138R, E223R, N230E
B6: FIXa R318Y/R338E/N346Y/R403E/E410N (protein)
chain 1: B1 chain 1
chain 2: B1 chain 2 with N67K, S69N, R158E, N166Y
B7: FIXa Y155F/K247N/N249S/N260S (protein)
chain 1: B1 chain 1
chain 2: B1 chain 2 with N80S, Y138R, E223R, N230E
B8: FIXa variant D203N/F205T/R318Y/E410N (protein)
chain 1: B1 chain 1
chain 2: B1 chain 2 with D23N, F25T, N67K, S69N, E223R
B9: FIXa Y155F/R318Y/R338E/N346D/R403E/E410N (protein)
chain 1: B1 chain 1
chain 2: B1 chain 2 with N67K, S69N, R158E, N166D
B10: FIXa Y155F/K228N/K247N/N249S/R318Y/R338E/R403E/E410N (protein)
chain 1: B1 chain 1
chain 2: B1 chain 2 with K48N, R158E
B11: FIXa-K247N/N249S/R338E/R403E/E410N (protein)
chain 1: B1 chain 1
chain 2: B1 chain 2 with Y138R, R158E
B12: FIXa-Y155F/R318Y/T343R/R403E/E410N (protein)
chain 1: B1 chain 1
chain 2: B1 chain 2 with N67K, S69N, T163R
B13: FIXa-R338E/T343R/R403E/E410N (protein)
chain 1: B1 chain 1
chain 2: B1 chain 2 with N67K, S69N, Y138R, R158E, T163R
B14: FIXa-Y155F/K247N/N249S/R338E/R403E/E410N (protein)
chain 1: B1 chain 1
chain 2: B1 chain 2 with Y138R, R158E
B15: FIXa D104N/K106S/Y155F/K247N/N249S/N260S (protein)
chain 1: B1 chain 1 with D104N, K106S
chain 2: B1 chain 2 with N80S, Y138R, E223R, N230E
B16: FIXa Y155F/R318Y/R338E/T343R/R403E/E410N (protein)
chain 1: B1 chain 1
chain 2: B1 chain 2 with N67K, S69N, R158E, T163R
B17: FIXa K247N/N249S/N260S/R318Y/R338E/R403E/E410N (protein)
chain 1: B1 chain 1
chain 2: B1 chain 2 with N80S, R158E
B18: FIXa R318Y/R338E/R403E/E410N/T412A (protein)
chain 1: B1 chain 1
chain 2: B1 chain 2 with N67K, S69N, R158E, T232A
B19: FIXa K293A/R338A/R403A (protein)
chain 1: B1 chain 1
chain 2: B1 chain 2 with N67K, S69N, K113A, Y138R, R158A, E223A, N230E
B20: FIXa R318Y/R338E/T412A (protein)
chain 1: B1 chain 1
chain 2: B1 chain 2 with N67K, S69N, R158E, E223R, N230E, T232A
B21: FIXa D104N/K106S/N260S/R318Y/R338E/R403E/E410N (protein)
chain 1: B1 chain 1 with D104N, K106S
chain 2: B1 chain 2 with N67K, S69N, N80S, R158E
B22: FIXa K293E/R338E/R403E (protein)
chain 1: B1 chain 1
chain 2: B1 chain 2 with N67K, S69N, K113E, Y138R, R158E, N230E
B23: FIXa R318Y/R338E/T343R/N346Y/R403E/E410N (protein)
chain 1: B1 chain 1
chain 2: B1 chain 2 with N67K, S69N, R158E, T163R, N166Y
B24: FIXa D104N/K106S/R318Y/R338E/T343R/R403E/E410N (protein)
chain 1: B1 chain 1 with D104N, K106S
chain 2: B1 chain 2 with N67K, S69N, R158E, T163R
B25: FIXa-Y155F/R318Y/R338E/T343R/R403E (protein)
chain 1: B1 chain 1
chain 2: B1 chain 2 with N67K, S69N, R158E, T163R, N230E
B26: FIXa R318Y/R338E/R403E/E410N/T412V (protein)
chain 1: B1 chain 1
chain 2: B1 chain 2 with N67K, S69N, R158E, T232V
B27: FIXa-D104N/K106S/Y155F/K247N/N249S/R318Y/R338E/R403E/E410N (protein)
chain 1: B1 chain 1 with D104N, K106S
chain 2: B1 chain 2 with R158E
B28: FIXa variant D104N/K106S/Y155F/R318Y/R338E/R403E/E410N (protein)
chain 1: B1 chain 1 with D104N, K106S
chain 2: B1 chain 2 with N67K, S69N, R158E
B29: FIXa N260S/R318Y/R338E/R403E/E410N (protein)
chain 1: B1 chain 1
chain 2: B1 chain 2 with N67K, S69N, N80S, R158E
B30: FIXa-R318Y/T343R/R403E/E410N (protein)
chain 1: B1 chain 1
chain 2: B1 chain 2 with N67K, S69N, T163R
B31: FIXa Y155F/K247N/N249S/N260S/R318Y/R338E/R403E/E410N (protein)
chain 1: B1 chain 1
chain 2: B1 chain 2 with N80S, R158E
B32: FIXa-R318Y/R338E/T343R/R403E (protein)
chain 1: B1 chain 1
chain 2: B1 chain 2 with N67K, S69N, R158E, T163R, N230E
B33: FIXa-Y155F/R318Y/R338E/T343R/E410N (protein)
chain 1: B1 chain 1
chain 2: B1 chain 2 with N67K, S69N, R158E, T163R, E223R
B34: FIXa R318Y/R338E/R403E/T412A (protein)
chain 1: B1 chain 1
chain 2: B1 chain 2 with N67K, S69N, R158E, N230E, T232A
B35: FIXa R318Y/R338E/E410N/T412V (protein)
chain 1: B1 chain 1
chain 2: B1 chain 2 with N67K, S69N, R158E, E223R, T232V

Assays:
[1] = target: Factor X, P00742
Sequence of Factor X, P00742 (P00742 whole entry, looked up): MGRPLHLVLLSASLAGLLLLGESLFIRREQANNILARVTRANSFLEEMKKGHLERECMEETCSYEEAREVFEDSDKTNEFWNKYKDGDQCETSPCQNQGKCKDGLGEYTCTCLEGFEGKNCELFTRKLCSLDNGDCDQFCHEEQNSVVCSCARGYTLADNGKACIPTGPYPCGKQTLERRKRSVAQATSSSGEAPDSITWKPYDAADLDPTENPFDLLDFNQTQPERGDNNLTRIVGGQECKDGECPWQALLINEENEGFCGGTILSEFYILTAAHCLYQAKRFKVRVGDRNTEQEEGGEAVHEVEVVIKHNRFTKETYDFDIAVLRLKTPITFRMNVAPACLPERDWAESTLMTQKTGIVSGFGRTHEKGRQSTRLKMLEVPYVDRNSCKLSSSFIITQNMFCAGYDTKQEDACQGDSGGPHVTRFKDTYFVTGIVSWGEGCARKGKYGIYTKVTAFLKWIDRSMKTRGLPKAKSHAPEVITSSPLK

[2] = target: Factor X (FX), P00742
Sequence of Factor X (FX), P00742 (P00742 whole entry, looked up): as above

Protein | % of WT kcat/KM [1] [%] | kcat [1] [s⁻¹] | kcat/KM [1] [M⁻¹ s⁻¹] | KM (FX activation by FIXa in Xase complex with FVIIIa, PC/PS vesicles, Ca2+) [1] [µM] | % of WT kcat/KM [2] [%] | kcat/KM [2] [M⁻¹ s⁻¹] | KM of FX activation by FIXa in the Xase complex (FVIIIa, PC/PS vesicles, Ca2+); fluorogenic FXa substrate [1] [µM]
B1 | 22 | 1.2 | 1e+07 | – | – | – | –
B2 | 152 | – | 7e+07 | 0.0839 | – | – | –
B3 | 58 | 2.9 | 2.7e+07 | – | – | – | –
B4 | 907 | – | 4.2e+08 | 0.0247 | – | – | –
B5 | 21 | – | 9.8e+06 | 0.0612 | – | – | –
B6 | 270 | – | 1.2e+08 | 0.0281 | – | – | –
B7 | 42 | – | 1.9e+07 | 0.0965 | – | – | –
B8 | – | – | – | – | 85 | 3.9e+07 | –
B9 | 135 | – | 6.2e+07 | 0.1 | – | – | –
B10 | 263 | – | 1.2e+08 | 0.0454 | – | – | –
B11 | 422 | 4.8 | 1.9e+08 | – | – | – | –
B12 | 571 | 8.8 | 2.6e+08 | – | – | – | –
B13 | 650 | 9.8 | 3e+08 | – | – | – | –
B14 | 229 | 5 | 1.1e+08 | – | – | – | –
B15 | 18 | – | 8.2e+06 | 0.0685 | – | – | –
B16 | 640 | – | 3e+08 | 0.0272 | – | – | –
B17 | 145 | – | 6.7e+07 | 0.0474 | – | – | –
B18 | 538 | – | 2.5e+08 | 0.0344 | – | – | –

Protein | % of WT kcat/KM [1] [%] | kcat [1] [s⁻¹] | kcat/KM [1] [M⁻¹ s⁻¹] | KM (FX activation by FIXa in Xase complex with FVIIIa, PC/PS vesicles, Ca2+) [1] [µM] | % of WT kcat/KM [2] [%] | kcat/KM [2] [M⁻¹ s⁻¹] | KM of FX activation by FIXa in the Xase complex (FVIIIa, PC/PS vesicles, Ca2+); fluorogenic FXa substrate [1] [µM]
B19 | – | – | – | – | – | – | 0.0654
B20 | 642 | – | 3e+08 | 0.0235 | – | – | –
B21 | 190 | – | 8.8e+07 | 0.0611 | – | – | –
B22 | – | – | – | – | – | – | 0.05
B23 | 663 | – | 3.1e+08 | 0.0158 | – | – | –
B24 | 487 | – | 2.2e+08 | 0.0266 | – | – | –
B25 | 563 | 8.2 | 2.6e+08 | – | – | – | –
B26 | 342 | – | 1.6e+08 | 0.0483 | – | – | –
B27 | – | – | – | – | 292 | 1.3e+08 | –
B28 | – | – | – | – | 382 | 1.8e+08 | –
B29 | 114 | – | 5.3e+07 | 0.0724 | – | – | –
B30 | 125 | 5.3 | 5.8e+07 | – | – | – | –
B31 | 124 | – | 5.7e+07 | 0.0954 | – | – | –
B32 | 357 | 6.7 | 1.6e+08 | – | – | – | –
B33 | 794 | 9.2 | 3.7e+08 | – | – | – | –
B34 | 173 | – | 8e+07 | 0.0675 | – | – | –
B35 | 571 | – | 2.6e+08 | 0.0236 | – | – | –

From patent US20210238260
